Results on one molecule are retold here after US20230181754A1 (BRIGHT PEAK THERAPEUTICS, published 2023).

Assay [1] deals with T1, recombinant biotinylated human Fc gamma receptor I (FcγRI/CD64) (human, UniProt P12314 16-288, limits assumed, biotinylated).
T1 construct: also called FcγR1
As to the kind of experiment: AlphaLISA competition: free antibody competes with human IgG Fc on acceptor beads for biotinylated human FcγRI on streptavidin donor beads. In general terms: In Alpha technology, singlet oxygen from a donor bead excites a nearby acceptor bead.

The target in assay [2] is T2, recombinant biotinylated human Fc gamma receptor IIa (FcγRIIa/CD32a 167H) (human, UniProt P12318 36-218, limits assumed, biotinylated).
T2 sequence (looked up): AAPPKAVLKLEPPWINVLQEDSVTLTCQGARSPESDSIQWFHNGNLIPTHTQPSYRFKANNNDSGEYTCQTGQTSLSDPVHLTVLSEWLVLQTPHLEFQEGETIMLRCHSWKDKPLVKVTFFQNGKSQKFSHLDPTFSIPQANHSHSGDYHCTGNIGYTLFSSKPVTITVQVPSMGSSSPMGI
As to the kind of experiment: AlphaLISA competition: free antibody competes with human IgG Fc on acceptor beads for biotinylated human FcγRIIa on streptavidin donor beads.

T1 sequence (P12314 16-288 limits assumed): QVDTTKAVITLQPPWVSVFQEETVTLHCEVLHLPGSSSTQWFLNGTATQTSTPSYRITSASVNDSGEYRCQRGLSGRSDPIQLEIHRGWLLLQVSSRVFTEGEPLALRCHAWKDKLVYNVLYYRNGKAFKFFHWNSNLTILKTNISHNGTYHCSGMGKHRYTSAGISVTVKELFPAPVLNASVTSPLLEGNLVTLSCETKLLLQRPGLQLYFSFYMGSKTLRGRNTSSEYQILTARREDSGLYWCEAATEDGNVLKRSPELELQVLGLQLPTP

B1: Durvalumab (unmodified anti-PD-L1 antibody) (antibody, human IgG1, kappa)
heavy: EVQLVESGGGLVQPGGSLRLSCAASGFTFSRYWMSWVRQAPGKGLEWVANIKQDGSEKYYVDSVKGRFTISRDNAKNSLYLQMNSLRAEDTAVYYCAREGGWFGELAFDYWGQGTLVTVSSASTKGPSVFPLAPSSKSTSGGTAALGCLVKDYFPEPVTVSWNSGALTSGVHTFPAVLQSSGLYSLSSVVTVPSSSLGTQTYICNVNHKPSNTKVDKRVEPKSCDKTHTCPPCPAPEFEGGPSVFLFPPKPKDTLMISRTPEVTCVVVDVSHEDPEVKFNWYVDGVEVHNAKTKPREEQYNSTYRVVSVLTVLHQDWLNGKEYKCKVSNKALPASIEKTISKAKGQPREPQVYTLPPSREEMTKNQVSLTCLVKGFYPSDIAVEWESNGQPENNYKTTPPVLDSDGSFFLYSKLTVDKSRWQQGNVFSCSVMHEALHNHYTQKSLSLSPGK
light: EIVLTQSPGTLSLSPGERATLSCRASQRVSSSYLAWYQQKPGQAPRLLIYDASSRATGIPDRFSGSGSGTDFTLTISRLEPEDFAVYYCQQYGSLPWTFGQGTKVEIKRTVAAPSVFIFPPSDEQLKSGTASVVCLLNNFYPREAKVQWKVDNALQSGNSQESVTEQDSKDSTYSLSSTLTLSKADYEKHKVYACEVTHQGLSSPVTKSFNRGEC
notes: also called Imfinzi; MEDI-4736
Take B1: the binding result in assay [1] is “binds”. Further, the “IC50 (read off the curve)” value in assay [2] was around 400 nM.
